# Test results from patent US20200299675A1 (UNIVERSITY OF ROCHESTER, published 2020).
# B1: CBD alone (other)
# chain: MKIEEGKLTNPGVSAWQVNTAYTAGQLVTYNGKTYKCLQPHTSLAGWEPSNVPALWQLQNNGNNGLELRHG
# Molecular target: T1, streptavidin (Streptomyces avidinii, UniProt P22629 37-163)
# T1 construct: also called streptavidin-coated beads; streptavidin-coated magnetic beads
# Test: direct binding assay with plate-immobilized streptavidin and HRP-conjugated anti-FLAG antibody
# Method: For the Keap1 binding assay, Keap1 was immobilized on microtiter plates by incubating 100 μL of a 4 μM protein solution in PBS buffer overnight at 4° C., followed by washing (3×150 μL of PBS with 0.5% Tween-20) and blocking with 0.5% bovine serum albumin in PBS for 1.5 h at room temperature. After washing, each well was incubated with 100 μL of purified FLAG-tagged peptide at varying concentrations for 1 hour at room temperature. After washing three times with wash buffer, each well was incubated with 100 μL of 1:2500 dilution of HRP-conjugate mouse anti-FLAG polyclonal antibody (Sigma-Aldrich) for 1 hour at room temperature. After three washing step with wash buffer, 100 μL of 2.2 mM o-phenylenediamine dihydrochloride, 4.2 mM urea hydrogen peroxide, 100 mM dibasic sodium phosphate, and 50 mM sodium citrate, pH 5.0, were added to each well, followed by measurement of the absorbance at 450 nm after 10-20 min using a Tecan Infinite 1000 plate reader. Equilibrium dissociation constants (KD) were determined by fitting the dose-response curves to a 1:1 binding isotherm equation via nonlinear regression using SigmaPlot. Mean values and standard deviations were calculated from experiments performed in triplicate.
# T1 sequence (P22629 37-163, tags left off): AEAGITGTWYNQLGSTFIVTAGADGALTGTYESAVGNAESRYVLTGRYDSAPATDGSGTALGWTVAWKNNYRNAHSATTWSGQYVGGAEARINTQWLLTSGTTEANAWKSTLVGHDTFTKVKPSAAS
binder,measurement,value
B1,binding result,no binding
